Test results from the DeepSol protein solubility set.

assay: soluble on expression in E. coli; label from the status in PepcDB or PDB records

Sequence	soluble on expression in E. coli
GSESGLRYAYTLVVDGTANTARCFGTGHVDGEAFVGYSNNKTHGIGRWVNASHVEEENKEFVRQCKELQAELDKMQNNSAVIGVKTVQLDVGCTSKIEKHYAYDGNETEDDTATSASERARDCQKKLTEYRKLVLASAVSPQLEVERRSSGREGGMRLRCFARDYYPADLEIRWWKDDGGGGALPQTSKQHHDPLPSGQGLYQKHIDVYVDGGLEHVYSCRVKGIATGLELQIVRWKG	soluble
DKVTQSSPDQTVASGSEVVLLCTYDTVYSNPDLFWYRIRPDYSFQFVFYGDDSRSEGADFTQGRFSVKHILTQKAFHLVISPVRTEDSATYYCAFTLPPPTDKLIFGKGTRVTVEP	soluble
MSLGDQYTYYMNEKEFSDFKEKSQGNYMGIGIQVAVKDGKIVVISPIQGGPAEKAGIKTGDIILKVNGEPVSGNELDKAVSMMKGTTKENIKLTLYREGHHHHPPLIRIRAPSTSLRPHSSTTTTTTEIRLLTKPERKLSWLLPPLSNN	soluble
SALKAEGAALDCFEVTLKCEEGEDEEEAMVVAVIPRPEPMLRVTQQEKTPPPRPSPLEAGSDGCEEPKQQVSWEQEFLVGSSPGGSGRALCMVCGAEIRAPSADTARSHILEQHPHTLDLSPSEKSNILEAWSEGVALLQDVRAEQPSPPNSDSGQDAHPDPDANPDAARMPAEIVVLLDSEDNPSLPKRSRPRGLRPLELPAVPATEPGNKKPRGQRWKEPPGEEPVRKKRGRPMTKNLDPDPEPPSPDSPTETFAAPAEVRHFTDGSFPAGFVLQLFSHTQLRGPDSKDSPKDREVAEGGLPRAESPSPAPPPGLRGTLDLQVIRVRMEEPPAVSLLQDWSRHPQGTKRVGAGDTSDWPTVLSESSTTVAGKPEKGNGV	soluble
MAHHHHHHMGGVRGGRNKSHKLPVKFMAAAKQELVNSRLTLQEELLHSAFDDHSAYRMRITGLKQQNLDLSFTVSELEEQVRDLYTYIHEKRFARQVDEQGNEIAVMTPRPRGVPLALQTELGIDLRHSTANILSELSTLSINMKHQLNSALLRARQLHTLSAWLDEGNETSVSGGGVGGMLERVSEAAAIPVFPVSAWPSIPHFLRTFIAPDVPNYFWTETQAACILYNFFKRYKAIRRRARFVRDNKMLAPRVYQLFEHREVLLTRLDAGKEDVAAAEENTPFGYVVTQFAREVLANLSPQNTQPHLPLVLPGTVALRFPQTSSTPSQSKSLQSGERRG	not soluble
NEKITKKDALELFSLPIHAVGRIADEIRKVKCGDLVTFVNDTNINYTNICLSKCRFCAFYAREKGYVLSHEEILRKVGYAVKMGATQIMLQGGMNPDLGLEWFEELFRKIKARFSSVHIHSLSPPEIVFLAKLERSSIREVLDRLKAAGLDSLPGGGAEILVDSVRRKISPNKCSSDEWLRVMETAHSLNMPTTATMMFGHVESDGDIVEHLIKIRELQEKTGGFTAFIPWTFQPGNTELYAEIKRPVSPLRYLQVLAISRIVLNNFRNIQASWLTQGFEIATLSLFFGANDFGGTMLEENVVRATGKDFRPAKIEEIVKAVKAVGRPVALR	soluble
MGSCMKWDYGEMEDFSVSASGLFITNEGNFQYSNATLSYYDPATCEVENEVFYRANGFKLGDVAQSMVIRDGIGWIVVNNSHVIFAIDINTFKEVGRITGFTSPRYIHFLSDEKAYVTQIWDYRIFIINPKTYEITGYIECPDMDMESGSTEQMVQYGKYVYVNCWSYQNRILKIDTETDKVVDELTIGIQPTSLVMDKYNKMWTITDGGYEGSPYGYEAPSLYRIDAETFTVEKQFKFKLGDWPSEVQLNGTRDTLYWINNDIWRMPVEADRVPVRPFLEFRDTKYYGLTVNPNNGEVYVADAIDYQQQGIVYRYSPQGKLIDEFYVGIIPGAFCWKLEHHHHHH	not soluble
TVRVRLAPSPTGNLHIGTARTAVFNWLYARHRGGKFILRIEDTDRERSRPEYTENILEGLQWLGLTWDEGPYFQSDRLDLYRQAIQTLLDKGLAYYCYCTPEELEALRAEQKAKGQAPRYDNRHRHLTPEEQAAFEAAGRTPVIRFKIEDDRQIEWQDLVRGRVSWQGADLGGDMVIARAAPRGEIGYPLYNLVVVVDDIAMGITDVIRGEDHIGNTPKQILLYEALGATPPNFAHTPLILNSTGQKLSKRDGVTSISDFRAMGYLAPALANYMTLLGWSPPEGVGELFTLDLAAKHFSFERINKAGARFDWDKLNWLNRQYIQQLEPEEFLAELIPLWQGAGYAFDEERDRPWLFDLAQLLQPGLNTLREAIDQGAVFFIPSVTFDSEAMAQLGQPQSATILAYLLEHLPAEPALTVAMGQQLIQQAAKAAGVKKGATMRTLRAALTGAVHGPDLMAAWQILHQRGWDEPRLAAALKQAQTTSLEHHHHHH	soluble
MSLKKDYGSQEDFTQVWNTTMKGLKCCGFTNYTDFEDSPYFKENSAFPPFCCNDNVTNTANETCTKQKAHDQKVEGCFNQLLYDIRTNAVTVGEGHHHHHH	soluble
FINDVDLIITVEELDSFLEDQLLQLLGKHDISKTVYGKKNNIFPCCGEYSVDIVKTGINKVLDILKIQKIEISEKLIEKTDIIPLPVRPPNLCAGCMHRTVFYAFKEVSKDLKKQNIQIIFSGDIGCYTLGNAPPLELIDTCLCMGAGISLAGGI	not soluble
MIRQVIQRISNPEASIESLQERRFWLQCERAYTWQPIYQTCGRLMAVELLTVVTHPLNPSQRLPPDRYFTEITVSHRMEVVKEQIDLLAQKADFFIEHGLLASVNIDGPTLIALRQQPKILRQIERLPWLRFELVEHIRLPKDSTFASMCEFGPLWLDDFGTGMANFSALSEVRYDYIKIARELFVMLRQSPEGRTLFSQLLHLMNRYCRGVIVEGVETPEEWRDVQNSPAFAAQGWFLSRPAPIETLNTAVLAL	not soluble
MHNNENVSGISAYLLGLIIGDGGLYKLKYKGNRSEYRVVITQKSENLIKQHIAPLMQFLIDELNVKSKIQIVKGDTRYELRVSSKKLYYYFANMLERIRLFNMREQIAFIKGLYVAEGDKTLKRLRIWNKNKALLEIVSRWLNNLGVRNTIHLDDHRHGVYVLNISLRDRIKFVHTILSSHLNPLPPE	soluble
MSLEALSSYQQRNNQQLDQWLNRIPFQTLPLIEAMRYGLLLGGKRARPYLVYITGQMLGCELSDLDTPASAVECIHAYSLIHDDLPAMDDDELRRGKPTCHIQFDEATAILTGDALQTLAFTILAEGDLSAAGETQRVAMLQALAEASGAQGMCLGQALDLAAENRLISLEELETIHRNKTGALMRCAIRLGALAAGEKGRAMLPHLDRYAEAVGLAFQVQDDILDIISDTETLGKPQGSDQELNKSTYPALLGLEGAQQKAHTLLQEALLALEAIPYNTEHLEEFARYVVERKNEGHHHHHH	soluble
QQCGQTAPLINERLSYMKDVAGYKAENHLPIEDRIQEEKVINSAMAQAESLGLNGESIKPLMVAQINAAKAIQYRYRADWLSQPEPGWQPKPLDDVRANIGELSTKILEQIAEELKTCKPAEMGDKAHFINTIRQHNLTSADVEAIFSTFNQVKLK	soluble
MSGIAAGRLAEERKHWRKDHPFGFIAKPVKNADGTLNLFNWECAIPGRKDTIWEGGLYRIRMLFKDDFPSTPPKCKFEPPLFHPNVYPSGTVCLSLLDENKDWKPSISIKQLLIGIQDLLNHPNIEDPAQAEAYQIYCQNRAEYEKRVKKEAVKYAAELVQKQMLE	not soluble
MGKARGVNNGVNESSLGYLFGSGQPSSAAAATMGTTTTTTTTTTTDGTGGRPITTTTTTVTDNKKTSAGVRGSPNNYFRSEGQNCGNFLTDRPSTKVHAAPGGGSSLDYLFGGPSPAGSGNK	not soluble
ETELEQKAIDYDELERLNSTIVSNLNSGLITVTGDGRIRVFNRYAEALTGIGLAEAYDCHLFDVLPGFRVYADVLANVKRGEFEFIAKMGRKLTIGFSSVPLMLKDSDAAGILLNFQDVT	not soluble
MTVSSSAWMPRLISQQILSEYVKSLEVEADKVVIPGQNTPVFSWDRDGNGNLSIDTPLLKVRGESLATQADLTTISLTPGPKGELWQTSVERLDIKVDKHISLTFKNGVRID	not soluble
AIAVGHKYPVKCLEVDKSKGRLVVSHRRAMAERQMEHLKTGALVEGTVQGVKPYGVFVDVFGTSGLLHISQISHDQVANIQSLFLPGEKVKCMVVSFDKQRGRISLSTKALEPHPGDMLRNKQLVYEKAEEMALSYNQRMDSPVRSKNTTSSSTDDIIAGLDIGSLDDLDPILFGTHTNSSNSNTHSDHLKQDSMNGTIPESDI	soluble
SVGHLHLQAMGDTREQSRDGLLDSPDSGLPPSPSPSPPFYALSPGTLDTRTTTEAPAAPSLFQTPPALEMRSRLLPVFFGESIEVDPEPAHEIRCNSEITYASERYFRDKIFYAPVPTVTAYSETIVAAPNCTWRSYRSQLTLEPRPRALRFGSTAIIFPKLARSSFRTTLHCSLGQPRHWYSSSLQLRRCGDPTPGPSCPDVL	soluble
MKKLLSIVLGLALSAPVLANEVSFEQYVERLKQQAREEGISERILNEAFRDVEYKPRSVVADKNQPEKKLTLDEYIPRAVPEWKVKQAQSLYEKHYTELQRIGKQYGVQPRFIVALWGVESNFGAFTGNFRVIDALSTLAYEGRREEFFRKETMAALQILEQGHIAPEAMKGSWAGAMGQCQFMPSSFLNFAADGNGDGKKDIWGTRSDVFASTANYLSQSGWDDKYTWGRQVKIPKGFDHALEGRQPEKGKTLQEWSKLGVTRYDGKPLPALSDDIKAWLIMPDDEAGRIYLVYNNYNVLMKWNRSHYFALAVSHLADRIAF	not soluble
MCMVKVWVEKLLDEPELYILRLDDSEIKHFEAAWSIPEGITYNAYLMKVGDAVVLFDTWKGEYTEKFLESLSTLVDPKEITHIIVHHTEPDHSGALPKLLELNEYRAKLIGTTFAKNLLQGFYGDKVVENFHTIKDGEEVKIGNRTFRFITVPWLHWPDTMITYDVEDKLIFSCDAGGGYGIPEAIDDSDEDVVKKYLPYVTKYIVTVIGHYHKYIVQNIKKLKELGIIENANMILPGHGLIWRKSPTRIFEHYERVGAGIPTKDKVLVIYDSMYGFVEKRMSVVIEELKRYGKKPVVYRFTDKENPAISDILGEVPDSEALVIGVSTYEADIHPRMRCALYEILDKANYEKPVLIVGAFGWGGVAGKKVETLISRSKFELVDVVETKGRMTSEDEERLREAVRKLIQWQL	soluble
GPGSTRCQRERLLYVRRFDPVRGYHLRAAEDISVGTIIFQDECRPVRLCTKPYALQHFSKADYVDFQHNAWPVGRDGHYYALWDHDPAQWRAFNHSCEPNMSFAPMRSLDVVALRNIPKGEELTMDYRQFMDSTMPGFQCNCGTEKCEGFVSPGSLVDSPTAKIASQPTVALRHNIAVRLNPI	not soluble
IEIRSVVYQIEGQPYESRLVYDSSATALQPGLLMAPNWMGVSRGAEDIARAVAAKGYVVLLADLYGQQLRPSNNDEAGAAMTPLKNDRGLLRKRMQAGLDQLLSQADVSLDVSRIATFGFCFGGCCSLELARTGAELKAAISFHGTLDTPNPADASNIKGSVLVLHGASDPLVPKEQLPAFEEEMNAAGVDWQLHSHGGAFHSFTDPHANVPGMMMYDAKVSARAFKSMHDLLKEVFG	not soluble
MGHHHHHHSHMRQRLLPSVTSLLLVALLFPGSSQARHVNHSATEALGELRERAPGQGTNGFQLLRHAVKRDLLPPRTPPYQGDVPPGIRNTICRMQQGICRLFFCHSGEKKRDICSDPWNRCCVSNTDEEGKEKPEMDGRSGI	not soluble
MARALADLSVNLQVPRVVPSPDSDSDTDLEDPSPRRSAGGLHRSQVIHSGHFMVSSPHSDSLTRRRDQEGPVGLADFGPRSIDPTLTHLFECLSLAYSGKLVSPKWKNFKGLKLLCRDKIRLNNAIWRAWYIQYVQRRKSPVCGFVTPLQGSEADEHRKPEAVILEGNYWKRRIEVVMREYHKWRIYYKKRVSGTDTCRPWVLRVLEGIARPHPNPYL	soluble
